Laboratory results reported in US9962427B2, “Treatment of right ventricular dysfunction due to pressure overload” (OTTAWA HOSPITAL RESEARCH INSTITUTE, priority 2016, dated 2018).

What was measured:
Format in all cases: cell-based
[1] = test system: primary neonatal cardiomyocytes; assay: In vitro reversion of cardiomyocyte hypertrophy after removal of stimulus; conditions: for myocyte hypertrophy (cell area) after removal of stimulus: 2 day treatment, then 4 days serum-free media (Day 6); for cardiomyocyte cell size after 2 days of stimulation compared to control: PE 100 μM or hCT1 0.5 nM, Day 2
Protocol: FIGS. 2A and 2B. hCT1 induces physiologic adaptive compensation in vitro with reversion to a normal cardiomyocyte phenotype upon removal of hCT1 stimulation.
The morphological effects of CT-1 in an in vitro reversion setting (FIGS. 2A and 2B) were explored. Primary neonatal cardiomyocytes were stimulated for 2 days with phenylephrine (PE, 100 μM) or hCT1 (0.5 nM) followed by removal of the stimulus for 4 days: i.e. replenished with serum-free (SF) media. Cells were imaged at Day 0 and Day 2 of stimulation; and at Day 6 (4 days post-treatment). […] The population frequencies of L:W ratios of cardiomyocytes stimulated as above were examined (FIG. 2B). […] However, upon treatment with CT-1, only ˜20% of cardiomyocytes display a L:W ratio of 1.0 to 2.0 with the remaining cardiomyocytes showing an increased shift between 3.0 and 9.0 indicating eccentric growth. […] These observations indicate that although there is not complete penetrance of the eccentric growth (presumably due to the dosage and timing of CT-1 stimulation used), CT-1 causes an eccentric and reversible cardiomyocyte growth similar to what is seen during RV adaptive compensation, which is distinct from the concentric growth observed with PE which models pathological hypertrophic changes.

STAT3 = STAT3 luciferase reporter in cardiomyocytes; conditions: 30 minutes up to 24 hours; hCT1 0.5 nM, PE 100 μM, PAC-1 25 μM
Protocol: (§1) FIGS. 6A, 6B, and 6C. Stimulation with hCT1 causes sustained activation of NF-κB and Stat3 with limited activation of Mef2, as well as limited Nfat activation; the latter two indices are distinct expression patterns from pathologic hypertrophic stimulation. FIG. 6A Primary neonatal cardiomyocytes were transfected with luciferase reporter plasmids (NF-κB or Mef2), as indicators of hypertrophic activity. Luciferase activity was measured after treatments for 24 hrs with: hCT1 (0.5 nM), PE (100 μM), or procaspase 3 activating compound 1, PAC-1 (25 μM) (left). Treatments at early timepoints (30 min, 1 hr, and 3 hr) were also conducted for hCT1 (right). FIG. 6B Primary neonatal cardiomyocytes were transfected with a luciferase reporter plasmid for Stat3. Luciferase activity was measured after treatments for 24 hrs with: hCT1 (0.5 nM), PE (100 μM), or procaspase 3 activating compound 1, PAC-1 (25 μM) (left) and at earlier time points (right). FIG. 6C Primary neonatal cardiomyocytes were infected with a luciferase-based Nfat reporter Adenovirus (Nfat-AdV). Luciferase activity was measured after treatments for 24 hrs with: hCT1 (0.5 nM), PE (100 μM), or procaspase 3 activating compound 1, PAC-1 (25 μM) (left) and at earlier time points (right)
Moreover, it is reasonable to assume that CT-1 may moderate the activity of additional transcription factors, which further contribute to the adaptive compensation phenotype. As such, Applicants decided to test the hypothesis that STAT3 (Signal transducer and activator of transcription 3) dependent transcriptional activity is a specific determinant for CT-1 induced physiologic adaptive compensation. STAT3 phosphorylation and transcriptional activation is a response that is common to the Interleukin-6 cytokine family (of which CT-1 is a member), which is mediated through binding and activation of a JAK/gp130 (Janus kinase/[…]) receptor complex.

NFAT = NFAT luciferase reporter adenovirus (Nfat-AdV) in cardiomyocytes
Protocol: as §1
Applicants tested this supposition by infecting cardiomyocytes with an NFAT luciferase reporter linked to an Adenovirus (AdV) backbone (FIG. 6C). Cardiomyocytes were infected at a […] (MOI) of 20 with Nfat-AdV for 24 hours prior to stimulation with hCT1 (0.5 nM), PE (100 μM), or procaspase 3 activating compound 1, PAC-1 (25 μM). As an initial positive control, co-infection of NFAT-AdV with activated Calcineurin-AdV (a phosphatase and potent activator of NFAT signalling) caused a significant increase in NFAT activity (n=4; *, P<0.05). […] Although the exact mechanism of inhibition is unknown, Applicant has shown CT-1 engaging a PI3K signalling pathway and it would be reasonable to postulate that phosphorylation of NFAT by CT-1/PI3K signalling would limit NFAT activity.

[2] = test system: Vascular Endothelial Growth Factor—VEGF; assay: VEGF expression by immunofluorescence in primary cardiomyocytes; conditions: 24 hours; hCT1 0.5 nM, PE 100 μM, PAC-1 25 μM
Protocol: FIGS. 8A and 8B. […] FIG. 8B Microarray analysis of primary cardiomyocytes stimulated with hCT1 (0.5 nM) for 24 hours.
Applicant explored the role of CT-1 as a pro-angiogenic factor in the adaptive hypertrophic response. Physiologic cardiac adaptive compensation is associated with an increase in capillary density, whereas pathologic response is characterized by a decline or no change at all. Importantly, the compensatory vascular growth/angiogenesis that occurs during physiologic adaptive compensation is permissive for the increased workload that accompanies physiologic adaptive compensation. Despite this adaptation, little information exists regarding the mechanisms that match the demand for angiogenesis to the beneficial form of myocardial growth. The rapid in vitro and in vivo adaptive compensation in response to CT-1 supports a hypothesis that the cardiomyocyte itself may act in a paracrine fashion, to signal and promote angiogenesis. To address this conjecture, Applicant examined whether CT-1 treated primary cardiomyocytes produced vascular endothelial growth factor (VEGF), an angiogenic factor known to be produced and secreted by cardiomyocytes. Primary cardiomyocytes were incubated with control serum-free media (Ctrl, SF media) or stimulated with hCT1 (0.5 nM), PE (100 μM), or PAC-1 (25 μM) for 24 hours. Immunofluorescence was used to detect α-actinin, Vascular Endothelial Growth Factor—VEGF, and nuclei. […] Based on these observations Applicant next conducted a comparative gene expression analysis of control (non-stimulated) versus CT-1 treated (0.5 nM, 24 hours) primary cardiomyocytes, using the Affymetrix Rat gene 2.0ST array.

Molecule | myocyte hypertrophy (cell area) after removal of stimulus [1] | cardiomyocyte cell size after 2 days of stimulation compared to control [1] | STAT3 activation (STAT3) | NFAT activity compared to baseline levels (NFAT; as early as 3 hours, up to 24 hours, PE 100 μM, PAC-1 25 μM) | VEGF expression (immunofluorescence) [2] | L:W ratio population frequency after removing stimulation ([1]; 4 days after removal) | proportion of cardiomyocytes with L:W ratio of 1.0 to 2.0 ([1]; upon treatment (2 days), control ~60%) | NFAT activity compared to baseline levels, CT-1 alone (NFAT; 30 minutes, 1 hour, and 3 hours) | NFAT activity after CT-1 pre-treatment compared to PE or PAC-1 alone (NFAT; 3 hours and 24 hours)
CNC[C@H](O)c1cccc(O)c1 [PE, Phenylephrine] | remained hypertrophied | increase in cardiomyocyte cell size | only minimal (if any) activation | significant increase of NFAT activity | less VEGF expression | – | – | – | –
hCT1: Recombinant human CT1 protein; 201 amino acid sequence, GenBank Accession Nos AAD12173 and AAA85229 (human) (protein, UniProt Q16619 1-201, looked up) Cardiotrophin-1: MSRREGSLEDPQTDSSVSLLPHLEAKIRQTHSLAHLLTKYAEQLLQEYVQLQGDPFGLPSFSPPRLPVAGLSAPAPSHAGLPVHERLRLDAAALAALPPLLDAVCRRQAELNPRAPRLLRRLEDAARQARALGAAVEALLAALGAANRGPRAEPPAATASAASATGVFPAKVLGLRVCGLYREWLSRTEGDLGQLLPGGSA | reversion of the myocyte hypertrophy | increase in cardiomyocyte cell size | significant STAT3 activation | – | rapid increase in the expression of VEGF | reversion of L:W ratio occurs | ~20% | slight, yet significant, decrease in NFAT activity | significantly decreased NFAT activity
